Test results published in PMC4583294.

Columns and labels:
[1] = biological target: HMGB1 protein, wild-type, reduced (residues 1-214) (rat)
[2] = biological target: HMGB1 lacking the acidic C-tail (HMGB1ΔC, residues 1-185) (rat)
Sequence of HMGB1 lacking the acidic C-tail (HMGB1ΔC, residues 1-185) (rat) (P09429 1-185, stated change not applied): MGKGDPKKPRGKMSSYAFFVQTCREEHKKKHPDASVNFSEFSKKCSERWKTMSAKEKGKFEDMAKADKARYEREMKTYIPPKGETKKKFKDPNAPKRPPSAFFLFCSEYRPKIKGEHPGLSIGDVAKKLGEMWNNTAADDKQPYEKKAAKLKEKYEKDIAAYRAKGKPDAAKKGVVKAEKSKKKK

inhibition of HMGB1-mediated DNA bending (ligase-mediated circularization of a 123-bp DNA; 50 nM reduced HMGB1, 1-15 nM H1) [1]: 90%
inhibition of HMGB1ΔC-mediated DNA bending (ligase-mediated circularization of a 123-bp DNA; 50 nM reduced HMGB1ΔC, 1-15 nM H1) [2]: 40%
Substance: Recombinant mouse histone H1° (referred to as histone H1) (from UniProt P10922 1-194) (natural protein)
